In patent US20230011916A1 (BEIGENE, published 2023):
Where a chain is given by its changes, count along the chain named. In names and notes the source's numbering stands.

T1: full-length human OX40 expressed on HuT78 cells (HuT78/OX40) (human, UniProt P43489 29-277)
T1 sequence: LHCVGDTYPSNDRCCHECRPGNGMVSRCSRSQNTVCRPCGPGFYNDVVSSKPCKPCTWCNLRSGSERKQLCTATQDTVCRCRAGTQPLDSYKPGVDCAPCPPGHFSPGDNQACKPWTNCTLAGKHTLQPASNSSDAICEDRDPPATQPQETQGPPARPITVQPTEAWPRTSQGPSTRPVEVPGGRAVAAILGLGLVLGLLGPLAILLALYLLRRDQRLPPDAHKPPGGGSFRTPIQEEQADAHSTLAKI

T2: recombinant OX40 protein with a His tag (Cat: 10481-H08H, Sino Biological) (UniProt P43489 29-216)
T2 construct: Bought protein; also called OX40-His (bought); not shown: His tag
T2 sequence (looked up): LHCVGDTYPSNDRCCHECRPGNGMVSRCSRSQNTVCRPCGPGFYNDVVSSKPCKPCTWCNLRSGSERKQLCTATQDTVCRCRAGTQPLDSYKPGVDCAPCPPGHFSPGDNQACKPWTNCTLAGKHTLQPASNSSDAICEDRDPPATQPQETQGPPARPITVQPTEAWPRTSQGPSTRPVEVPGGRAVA

B1: 445-3 (antibody, V domains shown)
VH: QVQLVQSGAEVKKPGSSVKVSCKASGYKFTSYIIHWVRQAPGQGLEWMGYINPYNEGTRYNQKFQGRVTLTADKSTSTAYMELSSLRSEDTAVYYCARGYYGSSYAMDYWGQGTTVTVSS
VL: DIQMTQSPSSLSASVGDRVTITCRASQGISNYLNWYQQKPDGAIKLLIYDASTLYSGVPSRFSGSGSGTDFTLTISSLQPEDFATYYCQQYSKLPYTFGGGTKVEIK
B2: 445-2 (antibody, V domains shown)
VH: B1 VH with N61A
VL: B1 VL with R24S, D41G, G42K
B3: 445-3 IgG4 (antibody, V domains shown)
VH: B1 VH
VL: B1 VL
B4: 445-1 (antibody, V domains shown)
VH: B1 VH with E56D, A72S
VL: B1 VL with R24S, D41G, G42K, A51T, F71Y
B5: ch445 (antibody, V domains shown)
VH: EVQLQQSGPELVKPGASVKMSCKASGYKFTSYIIHWVKQKPGQGLEWIGYINPYNDGTRYNEKFKGKATLTSDKSSSTAYMEYSSLTSEDSAVYYCARGYYGSSYAMDYWGQGTSVTVSS
VL: DIQMTQTTSSLSASLGDRVTISCSASQGISNYLNWYQQKPDGTIKLLIYDTSTLYSGVPSRFSGSGSGTDYFLTISNLEPEDIATYYCQQYSKLPYTFGGGTKLEKK
notes: also called Mu445 variable domains fused to human IgG1wt/kappa constant regions
B6: 445-1-2(S24G) (antibody, human IgG1, V domains shown)
VH: B1 VH with E56D, A72S
VL: B1 VL with R24G, D41G, G42K, A51T, F71Y
B7: 445-1-2(S10T/E81D/D70E) (antibody, human IgG1, V domains shown)
VH: B1 VH with E56D, A72S
VL: B1 VL with S10T, R24S, D41G, G42K, A51T, D70E, F71Y, E81D
B8: 445-2(M48I)-1 (antibody, human IgG1, V domains shown)
VH: B1 VH with M48I, E56D, A72S
VL: B1 VL with R24S, D41G, G42K, A51T, F71Y
B9: 445-3(A61N-K63R)-3 (antibody, V domains shown)
VH: B1 VH with K63R
VL: B1 VL
B10: 445-3(Q62E/Q65K)-3(S24R) (antibody, V domains shown)
VH: B1 VH with N61A, Q62E, Q65K
VL: B1 VL with D41G, G42K
B11: 445-3(A61N-K28R)-3 (antibody, V domains shown)
VH: B1 VH with K28R
VL: B1 VL
B12: 445-3-3(G41D-K42G-S24R-K93R) (antibody, V domains shown)
VH: B1 VH
VL: B1 VL with K93R
B13: 445-3(Q62E)-3(S24R) (antibody, V domains shown)
VH: B1 VH with N61A, Q62E
VL: B1 VL with D41G, G42K
B14: 445-3(T30S)-3(S24R) (antibody, V domains shown)
VH: B1 VH with T30S, N61A
VL: B1 VL with D41G, G42K

These binders were tested against T1, full-length human OX40 expressed on … (assay: flow cytometry on HuT78/OX40 cells).
Protocol: (§1) Goat anti-Human IgG-FITC (Cat: A0556, Beyotime) was used as a secondary antibody for detection. EC₅₀ values for dose-dependent binding to human and cynomolgus monkey native OX40s were determined by fitting the dose-response data to the four-parameter logistic model with GraphPad Prism.

| EC50 [µg/mL] | Binder |
| --- | --- |
| 0.174 | B1 |

These binders were tested against T3, cynomolgus OX40 expressed on HuT78 cells (HuT78/cynoOX40) (cynomolgus monkey) (assay: flow cytometry on HuT78/cynoOX40 cells).
T3 construct: whole, on cells; also called cynomolgus monkey OX40
Protocol: as §1

| EC50 [µg/mL] | Binder |
| --- | --- |
| 0.171 | B1 |

The binders below were run against T1, full-length human OX40 expressed on … (assay: flow cytometry on live HuT78/OX40 cells; Mean).
Protocol: (§2) To evaluate the binding activity of anti-OX40 antibodies to bind OX40 expressed on the surface of live cells, HuT78 cells were transfected with human OX40 as described in Example 1 to create an OX40 expressing line. Live HuT78/OX40 cells were seeded in 96-well plate and were incubated with a serial dilution of various anti-OX40 antibodies. Goat anti-Human IgG-FITC (Cat: A0556, Beyotime) was used as a secondary antibody to detect antibody binding to the cell surface. EC₅₀ values for dose-dependent binding to human OX40 were determined by fitting the dose-response data to the four-parameter logistic model with GraphPad Prism.

| EC50 [µg/mL] | Top(MFI) | Binder |
| --- | --- | --- |
| 0.343 | 620 | B2 |
| 0.263 | 892 | B3 |
| 0.285 | 525 | B4 |
| 0.328 | 910 | B1 |
| 0.299 | 725 | B5 |

Each binder was assayed against T1, full-length human OX40 expressed on … (assay: flow cytometry on live HuT78/OX40 cells; Test 1).
Protocol: as §2

| EC50 [µg/mL] | Binder |
| --- | --- |
| 0.323 | B2 |
| 0.263 | B3 |
| 0.293 | B4 |
| 0.337 | B1 |
| 0.321 | B5 |

What follows are binders tested against T1, full-length human OX40 expressed on … (assay: flow cytometry on live HuT78/OX40 cells; Test 2).
Protocol: as §2

| EC50 [µg/mL] | Binder |
| --- | --- |
| 0.363 | B2 |
| 0.278 | B4 |
| 0.319 | B1 |
| 0.277 | B5 |

What follows are binders tested against T2, recombinant OX40 protein with a His tag … (assay: SPR, BIAcore T-200; antibody captured by anti-human IgG, OX40-His flowed; Mean).
Source text: (§3) The anti-OX40 antibodies were characterized for their binding kinetics and affinity by SPR assays using BIAcore™ T-200 (GE Life Sciences). Briefly, anti-human IgG antibody was immobilized on an activated CM5 biosensorchip (Cat: BR100530, GE Life Sciences). An antibody with human IgG Fc region was flowed over the chip surface and captured by anti-human IgG antibody. Then a serial dilution of recombinant OX40 protein with a His tag (Cat: 10481-H08H, Sino Biological) was flowed over the chip surface and changes in surface plasmon resonance signals were analyzed to calculate the association rates (ka) and dissociation rates (kd) by using the one-to-one Langmuir binding model (BIA Evaluation Software, GE Life Sciences). The equilibrium dissociation constant (KD) was calculated as the ratio kd/ka.

| Ka [M⁻¹] | Kd [nM] | Binder |
| --- | --- | --- |
| 7.5e+07 | 13.5 | B2 |
| 1e+08 | 10 | B3 |
| 5.9e+07 | 17.1 | B4 |
| 1.06e+08 | 9.47 | B1 |
| 1.41e+08 | 7.28 | B5 |

The binders below were run against T1, full-length human OX40 expressed on … (assay: FACS; cells not named on the sheet, HuT78/OX40 cells as in Example 5).

| EC50 [µg/mL] | Top(MFI) | Binder |
| --- | --- | --- |
| 0.307 | 470 | B6 |
| 0.28 | 510 | B7 |
| 0.336 | 500 | B4 |
| 0.353 | 480 | B8 |

Molecular target: T1, full-length human OX40 expressed on …
Assay: as above
Remark: another data set of the same source

| EC50 [µg/mL] | Top(MFI) | Binder |
| --- | --- | --- |
| 0.397 | 760 | B2 |
| 0.483 | 1100 | B9 |
| 0.318 | 790 | B10 |
| 0.369 | 1080 | B11 |
| 0.337 | 1050 | B12 |
| 0.363 | 760 | B13 |
| 0.405 | 800 | B14 |
| 0.462 | 990 | B1 |

The binders below were run against T2, recombinant OX40 protein with a His tag … (assay: SPR, BIAcore T-200; antibody captured by anti-human IgG, OX40-His flowed; Test 1).
Source text: as §3

| Ka [M⁻¹] | Kd [nM] | koff [s⁻¹] | kon [M⁻¹ s⁻¹] | Binder |
| --- | --- | --- | --- | --- |
| 7.1e+07 | 14.2 | 0.0039 | 276000 | B2 |
| 1e+08 | 10 |  |  | B3 |
| 5.6e+07 | 17.8 | 0.00277 | 156000 | B4 |
| 1.09e+08 | 9.16 |  |  | B1 |
| 1.22e+08 | 8.26 | 0.00143 | 174000 | B5 |

The binders below were run against T2, recombinant OX40 protein with a His tag … (assay: SPR, BIAcore T-200; antibody captured by anti-human IgG, OX40-His flowed; Test 2).
Source text: as §3

| Ka [M⁻¹] | Kd [nM] | koff [s⁻¹] | kon [M⁻¹ s⁻¹] | Binder |
| --- | --- | --- | --- | --- |
| 7.8e+07 | 12.8 | 0.00264 | 206000 | B2 |
| 6.1e+07 | 16.4 | 0.00389 | 237000 | B4 |
| 1.03e+08 | 9.77 |  |  | B1 |
| 1.59e+08 | 6.3 | 0.00167 | 265000 | B5 |

The binders below were run against T2, recombinant OX40 protein with a His tag … (assay: Biacore (SPR); antigen not named on the sheet, OX40-His as in Example 4).

| Kd [nM] | koff [s⁻¹] | kon [M⁻¹ s⁻¹] | Binder |
| --- | --- | --- | --- |
| 16.2 | 0.0036 | 222000 | B6 |
| 14.9 | 0.0034 | 228000 | B7 |
| 15.5 | 0.00356 | 230000 | B8 |

Molecular target: T2, recombinant OX40 protein with a His tag …
Assay: as above
Remark: another data set of the same source

| Kd [nM] | koff [s⁻¹] | kon [M⁻¹ s⁻¹] | Binder |
| --- | --- | --- | --- |
| 9.65 | 0.00155 | 161000 | B9 |
| 12.4 | 0.00232 | 187000 | B10 |
| 7.35 | 0.00115 | 157000 | B11 |
| 7.9 | 0.00168 | 212000 | B12 |
| 11.7 | 0.00227 | 194000 | B13 |
| 13.1 | 0.00381 | 291000 | B14 |
| 8.51 |  |  | B1 |
